Source: patent US20140178854A1

Tests used:
[1] = biological target: gp70 env protein of amphotropic MLV (4070A envelope), on purified viral particles (amphotropic murine leukemia virus (4070A envelope)); assay: ELISA on plate-bound MLV, dilution factor 10, Exp072-DTV Plate 1
[2] = biological target: gp70 env protein of amphotropic MLV (4070A envelope), on purified viral particles (amphotropic murine leukemia virus (4070A envelope)); assay: ELISA on plate-bound MLV, dilution factor 10, Exp121-Ana Plate 1
[3] = biological target: gp70 env protein of amphotropic MLV (4070A envelope), on purified viral particles (amphotropic murine leukemia virus (4070A envelope)); assay: ELISA on plate-bound MLV, dilution factor 10, Exp125-Ana Plate 2
[4] = biological target: gp70 env protein of amphotropic MLV (4070A envelope), on purified viral particles (amphotropic murine leukemia virus (4070A envelope)); assay: ELISA on plate-bound MLV, dilution factor 50, Exp074-DTV Plate 1
[5] = biological target: gp70 env protein of amphotropic MLV (4070A envelope), on purified viral particles (amphotropic murine leukemia virus (4070A envelope)); assay: ELISA on plate-bound MLV, dilution factor 50, Exp074-DTV Plate 2
[6] = biological target: gp70 env protein of amphotropic MLV (4070A envelope), on purified viral particles (amphotropic murine leukemia virus (4070A envelope)); assay: ELISA on plate-bound MLV, dilution factor 50, Exp121-Ana Plate 2
[7] = biological target: gp70 env protein of amphotropic MLV (4070A envelope), on purified viral particles (amphotropic murine leukemia virus (4070A envelope)); assay: ELISA on plate-bound MLV, dilution factor 250, Exp072-DTV Plate 1
[8] = biological target: gp70 env protein of amphotropic MLV (4070A envelope), on purified viral particles (amphotropic murine leukemia virus (4070A envelope)); assay: ELISA on plate-bound MLV, dilution factor 250, Exp073-DTV Plate 2
[9] = biological target: gp70 env protein of amphotropic MLV (4070A envelope), on purified viral particles (amphotropic murine leukemia virus (4070A envelope)); assay: ELISA on plate-bound MLV, dilution factor 250, Exp121-Ana Plate 2
[10] = biological target: gp70 env protein of amphotropic MLV (4070A envelope), on purified viral particles (amphotropic murine leukemia virus (4070A envelope)); assay: ELISA on plate-bound MLV, dilution factor 1250, Exp072-DTV Plate 2
[11] = biological target: gp70 env protein of amphotropic MLV (4070A envelope), on purified viral particles (amphotropic murine leukemia virus (4070A envelope)); assay: ELISA on plate-bound MLV, dilution factor 1250, Exp125-Ana Plate 1
[12] = biological target: gp70 env protein of amphotropic MLV (4070A envelope), on purified viral particles (amphotropic murine leukemia virus (4070A envelope)); assay: ELISA on plate-bound MLV, dilution factor 1250, Exp125-Ana Plate 2
[13] = biological target: gp70 env protein of amphotropic MLV (4070A envelope), on purified viral particles (amphotropic murine leukemia virus (4070A envelope)); assay: ELISA on plate-bound MLV, dilution factor 6250, Exp072-DTV Plate 2
[14] = biological target: gp70 env protein of amphotropic MLV (4070A envelope), on purified viral particles (amphotropic murine leukemia virus (4070A envelope)); assay: ELISA on plate-bound MLV, dilution factor 6250, Exp121-Ana Plate 2
[15] = biological target: gp70 env protein of amphotropic MLV (4070A envelope), on purified viral particles (amphotropic murine leukemia virus (4070A envelope)); assay: ELISA on plate-bound MLV, dilution factor 6250, Exp125-Ana Plate 2
[16] = biological target: gp70 env protein of amphotropic MLV (4070A envelope), on purified viral particles (amphotropic murine leukemia virus (4070A envelope)); assay: ELISA on plate-bound MLV, dilution factor 31250, Exp074-DTV Plate 1
[17] = biological target: gp70 env protein of amphotropic MLV (4070A envelope), on purified viral particles (amphotropic murine leukemia virus (4070A envelope)); assay: ELISA on plate-bound MLV, dilution factor 156250, Exp073-DTV Plate 2
[18] = biological target: gp70 env protein of amphotropic MLV (4070A envelope), on purified viral particles (amphotropic murine leukemia virus (4070A envelope)); assay: ELISA on plate-bound MLV, dilution factor 156250, Exp074-DTV Plate 1
[19] = biological target: gp70 env protein of amphotropic MLV (4070A envelope), on purified viral particles (amphotropic murine leukemia virus (4070A envelope)); assay: ELISA on plate-bound MLV, dilution factor 156250, Exp074-DTV Plate 2
[20] = biological target: gp70 env protein of amphotropic MLV (4070A envelope), on purified viral particles (amphotropic murine leukemia virus (4070A envelope)); assay: ELISA on plate-bound MLV, dilution factor 156250, Exp121-Ana Plate 1
[21] = biological target: gp70 env protein of amphotropic MLV (4070A envelope), on purified viral particles (amphotropic murine leukemia virus (4070A envelope)); assay: ELISA on plate-bound MLV, dilution factor 156250, Exp122-Ana Plate 1
[22] = biological target: gp70 env protein of amphotropic MLV (4070A envelope), on purified viral particles (amphotropic murine leukemia virus (4070A envelope)); assay: ELISA on plate-bound MLV, dilution factor 781250, Exp074-DTV Plate 1
[23] = biological target: gp70 env protein of amphotropic MLV (4070A envelope), on purified viral particles (amphotropic murine leukemia virus (4070A envelope)); assay: ELISA on plate-bound MLV, dilution factor 781250, Exp121-Ana Plate 2
[24] = biological target: gp70 env protein of amphotropic MLV (4070A envelope), on purified viral particles (amphotropic murine leukemia virus (4070A envelope)); assay: ELISA on plate-bound MLV, dilution factor 250, inter-assay mean of six experiments
[25] = biological target: gp70 env protein of amphotropic MLV (4070A envelope), on purified viral particles (amphotropic murine leukemia virus (4070A envelope)); assay: ELISA on plate-bound MLV, dilution factor 6250, inter-assay mean of six experiments
[26] = biological target: gp70 env protein of amphotropic MLV (4070A envelope), on purified viral particles (amphotropic murine leukemia virus (4070A envelope)); assay: ELISA on plate-bound MLV, dilution factor 156250, inter-assay mean of six experiments

Sequence of gp70 env protein of amphotropic MLV (4070A envelope), on purified viral particles (amphotropic murine leukemia virus (4070A envelope)) (P21995 whole entry): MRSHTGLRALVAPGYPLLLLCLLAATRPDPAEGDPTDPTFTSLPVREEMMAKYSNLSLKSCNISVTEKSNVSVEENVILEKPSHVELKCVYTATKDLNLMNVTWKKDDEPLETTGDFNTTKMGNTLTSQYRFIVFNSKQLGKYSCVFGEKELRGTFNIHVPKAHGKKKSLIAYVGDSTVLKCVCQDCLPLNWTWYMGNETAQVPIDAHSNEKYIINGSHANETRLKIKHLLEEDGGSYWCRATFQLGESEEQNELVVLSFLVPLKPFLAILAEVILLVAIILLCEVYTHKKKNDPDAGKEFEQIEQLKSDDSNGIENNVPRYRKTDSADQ

“83A25 monoclonal antibody (rat IgG2a, anti-gp70)” was tested, and the Mean OD [1] was 1.98 OD, the Mean OD [2] was 2.65 OD and the Mean OD [3] was 2.27 OD. The Mean OD [4] was 2.01 OD, the Mean OD [5] was 2.14 OD and the Mean OD [6] was 2.46 OD. It also gave a Mean OD [7] of 1.7 OD, a Mean OD [8] of 2.12 OD and a Mean OD [9] of 2.25 OD. For the same substance, the Mean OD [10] was 1.31 OD, the Mean OD [11] was 1.44 OD and the Mean OD [12] was 1.44 OD. The Mean OD [13] was 0.612 OD, the Mean OD [14] was 0.758 OD and the Mean OD [15] was 0.635 OD. It also gave a Mean OD [16] of 0.253 OD, a Mean OD [17] of 0.139 OD and a Mean OD [18] of 0.145 OD. The Mean OD [19] was 0.131 OD, the Mean OD [20] was 0.163 OD and the Mean OD [21] was 0.18 OD. The Mean OD [22] was 0.114 OD, the Mean OD [23] was 0.131 OD and the Mean OD (inter-assay mean) [24] was 1.93 OD. For the same substance, the Mean OD (inter-assay mean) [25] was 0.693 OD and the Mean OD (inter-assay mean) [26] was 0.144 OD.
